In patent publication US20190160181A1 (MERSANA THERAPEUTICS, published 2019):
Values joined by “and” are separate entries in the source; they are usually repeats but may differ in a detail not shown here. Identical values can stand only once.

Experiments:
[1] = target: T1, Human cyclized NaPi2b peptide (human); experiment: ELISA on plate-coated human cyclized NaPi2b peptide, one site-specific binding fit
T1 construct: also called Human NaPi2b peptide
Description: Human cyclized NaPi2b peptide were generated and lyophilized covering the amino acids identified in the XMT-1535 epitope (New England Peptide, Gardner, Mass.). For the ELISA, the lyophilized NaPi2b peptide was reconstituted in DMSO. Human NaPi2b peptide was used to coat 96-Well high binding clear ELISA plates (Corning, 3369) at 1 μg/mL in sodium carbonate buffer, pH 9 to a total volume of 100 μl per well. After a 2-hour incubation, plates were washed 4 times with 100 μl per well TBS-Tween 20, blocked with 3% BSA in TBS-Tween 20 (100 μl per well) for 1 hour, and washed again. Test articles, MERS67 (Lot U0859BH and Lot U5569BL), XMT-1535, and the non-binding control (trastuzumab) were added to the wells at a dose concentration range from 100 nM to 0.002 nM using an […] 3-fold serial dilution in TBS-Tween 20 buffer at 100 μl per well. Plates were incubated for 1 hour with rocking then washed as above. […] The Optical Density (O.D.) was measured at 450 nm with a SpectraMax M5 microplate reader (Molecular Devices, Sunnyvale, Calif.). The O.D. for each treatment was graphed, and Kd calculated for each antibody with GraphPad Prism software (GraphPad Software Inc., La Jolla, Calif.) by non-linear regression using the one site-specific binding model.

human NaPi2b = target: T2, human NaPi2b (human, UniProt O95436 1-690); experiment: immunohistochemistry, human lung tumor tissue microarray
T2 construct: whole, on cells; read as O95436; Detected by immunohistochemistry in tissue sections; also called SLC34A2; NaPiIIb
T2 sequence (looked up): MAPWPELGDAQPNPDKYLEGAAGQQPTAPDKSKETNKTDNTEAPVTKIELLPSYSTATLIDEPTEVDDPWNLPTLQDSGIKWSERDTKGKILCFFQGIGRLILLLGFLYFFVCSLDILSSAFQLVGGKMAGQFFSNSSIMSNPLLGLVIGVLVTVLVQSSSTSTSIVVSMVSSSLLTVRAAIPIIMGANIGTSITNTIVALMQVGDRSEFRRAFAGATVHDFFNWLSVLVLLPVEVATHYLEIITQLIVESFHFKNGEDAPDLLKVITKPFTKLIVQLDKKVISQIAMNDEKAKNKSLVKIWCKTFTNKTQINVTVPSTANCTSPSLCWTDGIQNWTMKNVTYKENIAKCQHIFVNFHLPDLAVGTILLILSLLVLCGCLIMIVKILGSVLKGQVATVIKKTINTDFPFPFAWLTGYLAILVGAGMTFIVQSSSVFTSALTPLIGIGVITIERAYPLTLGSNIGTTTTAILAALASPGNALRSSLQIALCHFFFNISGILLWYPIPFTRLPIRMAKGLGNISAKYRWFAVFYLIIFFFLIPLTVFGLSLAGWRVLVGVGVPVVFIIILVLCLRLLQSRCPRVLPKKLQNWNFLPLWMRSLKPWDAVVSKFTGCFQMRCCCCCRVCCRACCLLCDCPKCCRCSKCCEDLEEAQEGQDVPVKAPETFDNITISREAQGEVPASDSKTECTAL
Description: An immunohistochemical assay for MERS67 was established on a Leica BondRx Instrument. The assay was performed on tissue microarrays (TMA), including NSCLC and small cell lung cancer (SCLC) cell line arrays, and a NSCLC human tumor array. Tumors in the NSCLC array had previously been classified based on morphologic features only. All arrays were scored based on the H-score method.
To characterize the primary tumors further, the tumor TMA was stained with TTF-1 and p40, markers of ACA and squamous cell carcinoma (SCC), respectively. Results of this staining were compared to MERS67 staining patterns. H-Scores in the NSCLC cell line TMA ranged from 0-260, and from 0-100 in the small cell lung carcinoma (SCLC) TMA. Within the tissue microarray, 99 individual cases were evaluable. By morphologic classification 63 cases were SCC, and 23 cases were ACA. Using an arbitrary cut point of H=50, there was a statistically significant difference in the number of NaPi2b positive ACA cases (19/23) vs SCC (3/63). FIG. 13 is a box plot of the H scores derived from MERS67 IHC comparing SCC vs ACA, when these tumors were classified by morphology only.

Kd [1]: 256 pM and 104 pM
binding result (human NaPi2b): binds
B1: MERS67 (antibody, rabbit IgG1, V domains shown)
VH: QVQLVQSGAEVVKPGASVKMSCKASGYTFTGYNIHWVKQAPGQGLEWIGAIYPGNGDTSYKQKFRGRATLTADTSTSTVYMELSSLRSEDSAVYYCARGETARATFAYWGQGTLVTVSS
VL: DIQMTQSPSSLSASVGDRVTITCSASQDIGNFLNWYQQKPGKTVKVLIYYTSSLYSGVPSRFSGSGSGTDYTLTISSLQPEDFATYYCQQYSKLPLTFGQGTKLELKR
notes: XMT-1535 variable regions joined to the rabbit IgG1 constant region and the rabbit Ig kappa-b4 C region; Two lots tested: U0859BH (one-step purification) and U5696BL (two-step purification); also called MER67; chimeric NaPi2b antibody
